The data set deals with 35S-cysteine-labelled 26 kD proTNFα (in vitro transcribed/translated).

B1: TNFα convertase purified from HL60 cell membrane fraction (identified as PR-3) (protein)
chain: IVGGHEAQPHSRPYMASLQMRGNPGSHFCGGTLIHPSFVLTAAHCLRDIPQRLVNVVLGAHNVRTQEPTQQHFSVAQVFLNNYDAENKLNDVLLIQLSSPANLSASVATVQLPQQDQPVPHGTQCLAMGWGRVGAHDPPAQVLQELNVTVVTFFCRPHNICTFVPRRKAGICFGDSGGPLICDGIIQGIDSFVIWGCATRLFPDFFTRVALYVDWIRSTLR
As for B1, the “cleavage of 26 kD proTNFα to the 17 kD mature form” value is “The purified convertase was shown to cleave the 26 kD proTNFα to the 17 kD mature form”.

The values above are taken from US6586222.
